Experimental data from PMC8141032 (Oncogene, 2021).

Target: recombinant Flag-tagged SNF5 (UniProt Q12824 1-385)
Test: pull-down

Sequence of recombinant Flag-tagged SNF5 (Q12824 whole entry): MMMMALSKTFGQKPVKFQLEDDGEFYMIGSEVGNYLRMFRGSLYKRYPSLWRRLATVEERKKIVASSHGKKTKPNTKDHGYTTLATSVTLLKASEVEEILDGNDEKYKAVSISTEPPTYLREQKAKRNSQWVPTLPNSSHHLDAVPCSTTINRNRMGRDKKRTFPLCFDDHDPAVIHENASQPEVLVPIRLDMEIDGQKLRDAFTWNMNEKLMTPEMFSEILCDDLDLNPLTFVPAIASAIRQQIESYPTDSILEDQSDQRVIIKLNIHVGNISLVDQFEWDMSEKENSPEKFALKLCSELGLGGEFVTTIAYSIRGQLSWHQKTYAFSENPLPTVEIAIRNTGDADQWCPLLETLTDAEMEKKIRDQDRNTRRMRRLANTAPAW

B1: recombinant SWIRM domain (amino acids 417–546 of BAF155) (domain or fragment)
chain: TAGGKEDEDPAKGDQSRSVDLGEDNVTEQTNHIIIPSYASWFDYNCIHVIERRALPEFFNGKNKSKTPEIYLAYRNFMIDTYRLNPQEYLTSTACRRNLTGDVCAVMRVHAFLEQWGLVNYQVDPESRPM
binding result: binds

B2: recombinant Sumo-tagged SWIRM (amino acids 417–580 of BAF155) (domain or fragment)
chain: TAGGKEDEDPAKGDQSRSVDLGEDNVTEQTNHIIIPSYASWFDYNCIHVIERRALPEFFNGKNKSKTPEIYLAYRNFMIDTYRLNPQEYLTSTACRRNLTGDVCAVMRVHAFLEQWGLVNYQVDPESRPMAMGPPPTPHFNVLADTPSGLVPLHLRSPQVPAAQ
binding result: binds
